Experimental data: patent publication US10435681B2, “Compounds and methods for stabilizing thrombin activity” (Omrix Biopharmaceuticals Ltd., priority 2013, dated 2019)
Entries after “also recorded” stand apart in the source; their conditions may differ.

Experiments:
[1] = molecular target: T1, gamma loop of thrombin (Homo sapiens, UniProt P00734); test: Peptide microarray binding screen with fluorescent gamma loop peptide; settings: scale 0-65535
T1 construct: Fluorescein-labeled cyclic gamma-loop derived peptide; made in house; host or cells: chemical synthesis
Description: Based on the results disclosed in Example 2, the gamma loop peptide was used as a bait to find additional peptides which may positively affect the stability of thrombin. For this purpose, a binding screen was carried out using a fluorescent gamma loop peptide incubated with several peptide arrays.
(§1) A library of 1,676 15-meric peptides spanning the sequences of proteins interacting with the gamma loop of thrombin such as thrombin itself, anti-thrombin III (ATIII), thrombomodulin, heparin cofactor II, bovine pancreatic trypsin inhibitor (BPTI), and hirudin, and modifications of the thrombin gamma loop sequence were generated. Peptides were synthesized using SPOT synthesis (Wenschuh H, et al. (2000). Coherent membrane supports for parallel microsynthesis and screening of bioactive peptides. Biopolymers 55:188-206) and were chemoselectively immobilized onto functionalized glass slides as described (Panse S, et al. (2004) Profiling of generic anti-phosphopeptide antibodies and kinases with peptide microarrays using radioactive and fluorescence-based assays. Mol Divers 8:291-299.2.). Each peptide was printed in triplicates onto the microarray. For binding studies, 100 μg of purified thrombin (Omrix biopharmaceuticals) were directly labeled with DYLIGHT® 650 Microscale Antibody Labeling Kits, THERMO SCIENTIFIC™ (#84536) and diluted in blocking buffer SUPERBLOKTM T20 (TBS) Blocking Buffer, THERMO SCIENTIFICTM (#37536). The microarrays were incubated with 10 μg/ml DYLIGHT® 650-Thrombin or a Fluorescein-labeled cyclic gamma-loop derived peptide for one hour at 30° C. in a HS4800™ microarray processing station (Tecan) (Masch A, et al., (2010) Antibody signatures defined by high-content peptide microarray analysis. Methods Mol Biol 669:161-172).
(§2) Microarrays were washed with 0.1% TWEEN®20 in 1× TBS followed by 0.05% TWEEN®20 in 0.1× SSC and dried in a stream of nitrogen. Each microarray was scanned using GENEPIX® Autoloader 4200AL (Molecular Devices, Pixel size: 10 μm). Signal intensities were evaluated using spot recognition software GENEPIX® Pro 7.0 analysis software (Molecular Devices). For each peptide, the mean signal intensity of the three triplicates was extracted. Further evaluation and representation of results was performed using the statistical computing and graphics software R (Version 2.11.1, www.r-project.org).
(§3) One array included peptides based on the thrombin sequence. Any peptide isolated from this library may reflect possible regions in the thrombin protein that may interact with the gamma loop. […] The fluorescence for the strongest binding candidates (hits) was quantified on an arbitrary scale of 0-65535 (2^16). Thrombin activity was assesed as described in Example 1.

[2] = molecular target: T2, thrombin (Homo sapiens, UniProt P00734); test: Thrombin inhibition testing: clotting activity of 10 IU/ml thrombin towards fibrinogen in the presence of the additive; type: biochemical
T2 construct: yields the active alpha thrombin molecule which is a 295 amino acid polypeptide (human) composed of a heavy and light chain
Description: (§4) Thrombin activity was assessed by clotting time measurements using STart4 Coagulation Instrument (DIAGNOSTICA STAGO™, Asnieres sur Seine, France). The assay is a modification of the European Pharmacopoeia Assay procedure, 1997, 0903, p. 858. Briefly, a calibration curve was prepared by mixing thrombin standard with a fibrinogen solution of 0.1% fibrinogen content (Enzyme Research Laboratories, Ind., USA). Thrombin concentration in the different tested samples was then calculated from the calibration curve by their clotting time (the concentration was extrapolated from the calibration curve).
For inhibition testing, the clotting activity of 10 IU/ml thrombin was measured in the presence or absence of peptides.
The assay was carried out as described in Example 1.

[3] = molecular target: T2, thrombin; test: Peptide microarray binding with fluorescently labelled thrombin; settings: DYLIGHT 650-Thrombin
Description: A screen was carried out to identify gamma loop mutants that may show improved binding to thrombin. This was carried out with fluorescent thrombin on an array of gamma loop peptide mutants. Three such cyclized peptides with the highest binding efficiency were tested for their capacity to stabilize thrombin without compromising thrombin activity towards fibrinogen (see Example 4 below).
as §1, with “The microarrays were incubated with 10 μg/ml DYLIGHT® 650-Thrombin or a Fluorescein-labeled” left out
as §2, §3

[4] = molecular target: T2, thrombin; test: Thrombin stability testing: remaining clotting activity of 1000 IU/ml liquid thrombin after storage at 37° C.; type: biochemical; settings: 0.5 mM peptide, 1000 IU/ml thrombin; for stabilization of thrombin activity (in words): 37° C., 0, 3 and 7 days
Description: Aqueous liquid thrombin, in its purified and concentrated form 1000 international units IU/ml may undergo autolysis at room temperature causing a significant loss of activity e.g. towards a heterologous substrate. E.g. thrombin activity towards a heterologous substrate is reduced when a liquid thrombin formulation is incubated at room temperature for prolonged periods of time (e.g. 72 to 144 hours), inter alia, due to autolytic degradation. The decrease of thrombin activity towards a heterologous substrate in aqueous liquid solution can be assessed by measuring thrombin activity after prolonged periods of time and under permissive temperature (e.g. 37° C.). In the following experiments, the effect of a peptide on the stability of thrombin was studied under different conditions.
Aqueous liquid purified and concentrated thrombin (1000 IU/ml; equivalent to about 10 μM) was aliquoted and placed in a 37° C. incubator for 3 days (72 hours), 7 days (168 hours) and 14 days (336 hours). Prior to incubation, thrombin samples were spiked with indicated amounts of different tested peptides or with a control thrombin inhibitor: benzamidine or arginine *HCl (“arginine”). Specific peptides, their concentrations, and thrombin inhibitors used are indicated in each Example. Following the incubation period, the samples were frozen at −80° C. until testing the thrombin activity. Just before thrombin activity assay testing, all the samples were thawed and 100-fold diluted into a dilution buffer (0.4% tri-sodium citrate di-hydrate, 0.9% sodium chloride and 1% BSA, pH=7.5) to bring the thrombin concentration in the sample to that within the specifications of the assay (4-10 IU/ml) and to dilute the tested peptides in the sample to a negligible concentration.
as §4
For stability testing of 1000IU/ml thrombin following storage with or without peptides, testing was carried out as described above. Dilutions (1:100) were carried out before measuring the activity.
All of these peptides (“mutant gamma loop peptides” identified in Example 3, random peptides, thrombin derived peptides, and “gamma loop binding peptides” mentioned above) were tested for their ability to stabilize thrombin activity at a concentration of 0.5 mM as described in Example 2.

[5] = molecular target: T2, thrombin; test: as above; type: biochemical; settings: 1000 IU/ml thrombin

LGNKKFVSGSRFVST [Rnd_inter_316]
Binding intensity of gamma loop [1]: 26628 arbitrary units | inhibition of thrombin activity (in words) ([2]; any concentration tested): absolutely no inhibition | Binding intensity of thrombin (100 μg/ml) [3]: 12353 | stabilization of thrombin activity (in words) ([4]; listed as SEQ ID NO:12): some stabilization effect; also recorded: capable of stabilizing liquid aqueous thrombin

GNLKETWTANVGKGQPS [SEQ ID NO:2, gamma loop peptide with flanking amino acids on N- and C-termini]
effect on thrombin activity (in words) ([2]; 0.2 mM peptide, 10 IU/ml thrombin): not significantly affected | remaining thrombin activity in presence of peptide ([2]; 0.5 mM peptide, 10 IU/ml thrombin, FIG. 2D): about 80% | stabilization of thrombin activity (in words) ([5]; 0.1 mM peptide, 144 hours at 37° C.): stabilization detected | stabilization of thrombin activity (in words) ([5]; 0.2 mM peptide, 72 hours at 37° C.): already evident | stabilization of thrombin activity (in words) [4]: capable of stabilizing liquid aqueous thrombin | stabilization of thrombin activity (in words) ([4]; listed as SEQ ID NO: 2): efficient stabilization of thrombin activity | thrombin stability (in words) ([4]; 72 and 144 hours at 37° C., FIG. 2C): an increase in thrombin stability was observed
